Measured values published in article PMC7617672, “Oryza genera-specific novel Histone H4 variant predisposes H4 Lysine5 Acetylation marks to modulate salt stress responses”.

Columns and labels:
[1] = biological target: rice histone H2A;rice histone H2B;rice histone H3;rice histone H4 (Oryza sativa;Oryza sativa;Oryza …, UniProt A2YMC6;A2WKP5;A2Y533;B7F4Q1 ;;;1-103, |||); assay: EMSA (nucleosome reconstitution, native PAGE); NCP gel: native 6% acrylamide, 0.5x TBE; peptide pull-down: 10 mM Tris pH 8.0, 50 mM NaCl, 5 mM MgCl2, 4 C, 6 h; cryo-EM: 10 mM Tris pH 8.0, 50 mM NaCl, 1 mM EDTA; conditions: protein: recombinant;recombinant;recombinant;recombinant; tags: none;none;none;N-terminal MGS extension from vector; chain copies: 2;2;2;2; blunt
[2] = biological target: rice histone H2A;rice histone H2B;rice histone H3;H4.VS (H4.V N-terminal 53 aa fused to H4 C-terminal 50 aa) (Oryza sativa;Oryza sativa;Oryza …, UniProt A2YMC6;A2WKP5;A2Y533;PDB:8Q16_4 ;;;, |||); assay: EMSA (nucleosome reconstitution, native PAGE); mobility shift similar to H4 NCP; NCP gel: native 6% acrylamide, 0.5x TBE; peptide pull-down: 10 mM Tris pH 8.0, 50 mM NaCl, 5 mM MgCl2, 4 C, 6 h; cryo-EM: 10 mM Tris pH 8.0, 50 mM NaCl, 1 mM EDTA; conditions: protein: recombinant;recombinant;recombinant;recombinant; tags: none;none;none;none; chain copies: 2;2;2;2; blunt

B1: Widom 601 NPS (147 bp as stated; 146 nt printed) (dsDNA)
DNA 1: CTGGAGAATCCCGGTGCCGAGGCCGCTCAATTGGTCGTAGACAGCTCTAGCACCGCTTAAACGCACGTACGCGCTGTCCCCCGCGTTTTAACCGCCAAGGGGATTACTCCCTAGTCTCCAGGCACGTGTCACATATATACATCCTG
DNA 2: CAGGATGTATATATGTGACACGTGCCTGGAGACTAGGGAGTAATCCCCTTGGCGGTTAAAACGCGGGGGACAGCGCGTACGTGCGTTTAAGCGGTGCTAGAGCTGTCTACGACCAATTGAGCGGCCTCGGCACCGGGATTCTCCAG
binding result [1]: binds
binding result [2]: binds
